# From patent US12491259B2, “Anti-variable MUC1* antibodies and uses thereof” (Minerva Biotechnologies Corporation, priority 2022, dated 2025)
# Legend:
# [1] = tested on: T47D-MUC1* breast cancer tumors; assay: Breast cancer xenograft, IVIS bioluminescence; format: in vivo, NOD/SCID/GAMMA (NSG) mice; conditions: from Day 6, 10 mg/kg, DAR 4.2
# Description: (§1) FIGS. 57A-57F show bioluminescence photographs of female NOD/SCID/GAMMA (NSG) mice, implanted with 90-day estrogen pellets and then implanted on the right flank with 1M human breast cancer cells that were either T47D wild-type cells that express low to medium levels of MUC1* or T47D-MUC1* cells that had been engineered to express more MUC1*. Day 7 post tumor implantation, the animals were injected with MNC2-MMAE, DAR 3.9, at 5 mg/kg, but was increased to 10 mg/kg for the Day 14 and Day 20 injections.
# as §1, with “58A-58F” for “57A-57F”, “MN20A10-MMAE,” for “MNC2-MMAE,”, “3.0,” for “3.9,”
# (§2) FIGS. 63A-63H show bioluminescence photographs of female NOD/SCID/GAMMA (NSG) mice, implanted with 90-day estrogen pellets and then implanted on the right flank with 1M human breast cancer cells that were either T47D wild-type cells that express low to medium levels of MUC1* or T47D-MUC1* cells that had been engineered to express more MUC1*. […]
# [2] = tested on: T47D-wt breast cancer tumors; assay: Breast cancer xenograft, IVIS bioluminescence; format: in vivo, NOD/SCID/GAMMA (NSG) mice; conditions: from Day 6, 10 mg/kg increased to 20 mg/kg, DAR 4.2
# Description: as §1
# as §1, with “58A-58F” for “57A-57F”, “MN20A10-MMAE,” for “MNC2-MMAE,”, “3.0,” for “3.9,”
# as §2
molecule,measurement,setting,value
MNC2-Deruxtecan (conjugate) VH: EVQLVESGGGLVKPGGSLRLSCAASGFTFSGYAMSWVRQAPGKGLEWVSTISSGGTYIYYPDSVKGRFTISRDNAKNSLYLQMNSLRAEDTAVYYCARLGGDNYYEYFDVWGKGTTVTVSS VL: DIVLTQSPASLAVSPGQRATITCRASKSVSTSGYSYMHWYQQKPGQPPKLLIYLASNLESGVPARFSGSGSGTDFTLTINPVEANDTANYYCQHSRELPFTFGGGTKVEIKRT,tumor burden (bioluminescence),[1],essentially eliminated by Day 26
same,tumor burden (bioluminescence),[2],greatly reduced compared to the controls
